Measurements reported in US20090311253A1 (AbbVie / Abbott, published 2009).

How the values were obtained:
[1] = molecular target: T1, Recombinant Human IL-13 (human, UniProt P35225 35-146, limits assumed); experiment: direct bind ELISA
[2] = molecular target: T2, Recombinant Human IL-4 (human, UniProt P05112 25-153); experiment: direct bind ELISA
T2 sequence (looked up): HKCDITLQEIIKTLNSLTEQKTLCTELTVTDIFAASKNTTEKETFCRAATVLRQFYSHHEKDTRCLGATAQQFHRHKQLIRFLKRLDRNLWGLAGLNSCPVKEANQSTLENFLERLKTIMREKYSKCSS

[3] = molecular target: T1, Recombinant Human IL-13; experiment: Biacore SPR
[4] = molecular target: T2, Recombinant Human IL-4; experiment: Biacore SPR
[5] = molecular target: T2, Recombinant Human IL-4; experiment: cell-based or functional assay
[6] = molecular target: T1, Recombinant Human IL-13; experiment: cell-based or functional assay

T1 sequence (P35225 35-146 limits assumed): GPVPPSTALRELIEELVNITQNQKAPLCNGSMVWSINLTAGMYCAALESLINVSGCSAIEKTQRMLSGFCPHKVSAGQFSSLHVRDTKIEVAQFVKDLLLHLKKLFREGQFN

- EC50 [1]: 5.89 nM
- EC50 [2]: 748 nM
- Kd [3]: 0.0497 nM
- koff [3]: 8.69e-05 s⁻¹
- kon [3]: 1.75e+06 M⁻¹ s⁻¹
- Kd [4]: 4.86 nM
- koff [4]: 0.000343 s⁻¹
- kon [4]: 70600 M⁻¹ s⁻¹
- IL-4 Neutralization Assay EC50 (A549 cells, hTARC) [5]: 0.09 nM
- IL-13 Neutralization Assay EC50 (A549 cells, hTARC) [6]: 0.09 nM
B1: DVD267 (bispecific antibody, human IgG1, kappa)
heavy: not shown
light: DIQMTQSPSSLSASVGDRVTISCRASQDIRNYLNWYQQKPGKAPKLLIFYTSKLHSGVPSRFSGSGSGTDYTLTISSLQPEDIATYYCQQGLTPPLTFGGGTKVEIKRTVAAPDIVLTQSPSSLSASVGDRVTITCKASQSVDYDGDSYMNWYQQKPGKAPKLLIYAASNLESGIPSRFSGSGSGTDFTFTISSLQPEDIATYYCQQSNEDPPTFGQGTKVEIKRTVAAPSVFIFPPSDEQLKSGTASVVCLLNNFYPREAKVQWKVDNALQSGNSQESVTEQDSKDSTYSLSSTLTLSKADYEKHKVYACEVTHQGLSSPVTKSFNRGEC
notes: outer AB051, inner AB027; vectors V1, V2
